Test results taken from US20200164069A1 (BOSTON PHARMACEUTICALS, published 2020).

T1: IL-4 (UniProt P05112 25-153)
T1 sequence (looked up): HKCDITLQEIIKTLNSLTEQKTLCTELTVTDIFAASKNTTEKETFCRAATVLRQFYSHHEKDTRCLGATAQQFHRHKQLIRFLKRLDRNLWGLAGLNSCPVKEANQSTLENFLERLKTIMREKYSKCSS

T2: IL-7 (UniProt P13232 26-177)
T2 sequence (looked up): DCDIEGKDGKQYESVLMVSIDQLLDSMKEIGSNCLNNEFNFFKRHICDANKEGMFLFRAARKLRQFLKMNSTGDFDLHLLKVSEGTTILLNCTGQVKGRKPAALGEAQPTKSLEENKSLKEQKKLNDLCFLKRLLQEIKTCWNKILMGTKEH


Assays:
[1] = biological target: T3, IL-21 (species not stated in the assay) (Homo sapiens (Human), UniProt Q9HBE4 25-162, Biotinylated in the competition ELISA of paragraph 259 (sites not given); unlabelled in the other results.); test: method not stated
T3 construct: also called biotinylated IL-21

recombinant human IL-21 [2] = biological target: T4, recombinant human IL-21 (human, UniProt Q9HBE4 30-162, limits assumed); test: cell-based or functional assay
[3] = biological target: T5, recombinant cynomolgus monkey IL-21 (cynomolgus monkey (Macaca fascicularis), UniProt Q9HBE4 30-162 (human entry), limits assumed); test: cell-based or functional assay
[4] = biological target: T3, IL-21 (species not stated in the assay); test: cell-based or functional assay
recombinant human IL-21 [5] = biological target: T4, recombinant human IL-21; test: cell-based or functional assay; remark: listed apart in the source
[6] = biological target: T5, recombinant cynomolgus monkey IL-21; test: cell-based or functional assay; remark: listed apart in the source
recombinant human IL-21 [7] = biological target: T4, recombinant human IL-21; test: cell-based or functional assay; remark: listed apart in the source
[8] = biological target: T5, recombinant cynomolgus monkey IL-21; test: cell-based or functional assay; remark: listed apart in the source
recombinant human IL-21 [9] = biological target: T4, recombinant human IL-21; test: cell-based or functional assay; remark: listed apart in the source
[10] = biological target: T5, recombinant cynomolgus monkey IL-21; test: cell-based or functional assay; remark: listed apart in the source
IL-2 = IL-2 (UniProt P60568 21-153); test: ELISA on plate-coated cytokine (2 µg/ml)
Method: (§1) ELISA was used to test cross reactivity of lead clones. Cytokines tested include 11-2, IL-4, IL-7, IL-9, and IL-15. Maxisorp ELISA plate (NUNC) was coated with 2 μg/ml of different cytokines in PBS at 4° C. overnight. The plate was then blocked with 3% BSA in PBST (PBS+0.1% Tween) at room temperature for one hour. Purified lead clone IgGs were serially diluted in PBST+3% BSA and the mixture was then added to each ELISA plate well and further incubated at room temperature for half an hour. After washing, secondary antibody-HRP was added to each well for 1 hour. Wells were washed first with PBST and then with PBS and the TMB solution from Pierce was added to detect the secondary antibody. After 5′ the reaction was stopped by the addition of 1N sulfuric acid. The plates were then read in an ELISA reader at 450 nm to detect the binding.

IL-4 = biological target: T1, IL-4; test: ELISA on plate-coated cytokine (2 µg/ml)
Method: as §1

IL-7 = biological target: T2, IL-7; test: ELISA on plate-coated cytokine (2 µg/ml)
Method: as §1

recombinant human IL-21 [11] = biological target: T4, recombinant human IL-21; test: method not stated for this clone (Table 2, column Kd hu)
IL-15 = IL-15 (UniProt P40933 49-162); test: ELISA on plate-coated cytokine (2 µg/ml)
Method: as §1

recombinant human IL-21 [12] = biological target: T4, recombinant human IL-21; test: KinExA 3000, solution-phase equilibrium, dual curve analysis
Method: (§2) The IL-21-coated Azlactone bead slurries were diluted to 30 mL with instrument buffer (PBS, pH 7.4, 0.02% NaN3) in a bead vial and affixed to the KinExA instrument. A user-defined timing program was used to sequentially transfer the IL-21/Azlactone beads to a capillary flow cell in the instrument, and individual sample mixtures were injected over the IL-21-coated beads. Unbound sample solution was removed by washing the beads with instrument buffer. A 1- or 2-μg/mL solution of the DyLight649-labeled, goat-anti-hulgG(H+L) secondary reagent (Thermo Scientific) was passed over the beads to detect receptor (K44VHa-N56Q) that remained bound to the IL-21-coated beads. […] The amount of fluorescence that remained associated with the beads was measured, and the signal was converted to percent free receptor (K44VHa-N56Q). […] Once the data had been collected for all samples in each series (500 fM and 50 pM K44VHa-N56Q), an isotherm was generated, which plotted the amount of free K44VHa-N56Q detected at each concentration of IL-21. The resulting 2 binding curves were then evaluated in a dual curve analysis using the instrument's evaluation software (KinExA Pro Software, v. 2.0.1.26, Sapidyne) from which individual KDS for each interaction were derived.
(§3) The binding of K44VHa-N56Q to human and cynomolgus monkey IL-21 was measured by KinExA. […]

[13] = biological target: T5, recombinant cynomolgus monkey IL-21; test: as above
Method: as §2, §3

T3 sequence (Q9HBE4 25-162 limits assumed): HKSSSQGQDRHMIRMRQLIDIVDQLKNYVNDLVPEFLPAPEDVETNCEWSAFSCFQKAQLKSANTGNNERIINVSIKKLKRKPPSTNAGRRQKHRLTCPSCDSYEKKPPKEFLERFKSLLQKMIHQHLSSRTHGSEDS
T4 sequence (Q9HBE4 30-162 limits assumed, form in doubt): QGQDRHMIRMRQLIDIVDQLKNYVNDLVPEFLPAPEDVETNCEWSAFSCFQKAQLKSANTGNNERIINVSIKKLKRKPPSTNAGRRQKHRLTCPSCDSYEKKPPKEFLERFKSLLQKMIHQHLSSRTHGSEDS
T5 sequence (Q9HBE4 other isoform, or with tags, fused parts or gaps limits assumed): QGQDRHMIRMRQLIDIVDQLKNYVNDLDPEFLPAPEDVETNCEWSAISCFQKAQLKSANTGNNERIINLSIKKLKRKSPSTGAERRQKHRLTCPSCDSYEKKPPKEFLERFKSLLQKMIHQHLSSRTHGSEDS
Chain of IL-2 (P60568 21-153 limits assumed): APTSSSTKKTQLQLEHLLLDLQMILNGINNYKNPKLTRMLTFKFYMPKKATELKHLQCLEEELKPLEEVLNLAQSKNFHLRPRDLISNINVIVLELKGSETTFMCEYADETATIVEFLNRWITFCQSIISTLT
Chain of IL-15 (P40933 49-162 limits assumed): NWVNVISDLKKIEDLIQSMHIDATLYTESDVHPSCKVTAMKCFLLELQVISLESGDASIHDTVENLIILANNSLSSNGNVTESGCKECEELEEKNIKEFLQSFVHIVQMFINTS

Binder	Kd [1] [nM]	inhibition of IgG production by human B cells (recombinant human IL-21 [2]) [%]	inhibition of IgG production by human B cells [3] [%]	maximal inhibition in pSTAT3 assay [4] [%]	IC50 in pSTAT3 assay (human PBMCs, 20 pM IL-21) (recombinant human IL-21 [5]) [pM]	IC50 in pSTAT3 assay (human PBMCs, 20 pM IL-21) [6] [pM]	IC50 in NK-92 cell assay (IFNγ, 200 pM IL-21) (recombinant human IL-21 [7]) [pM]	IC50 in NK-92 cell assay (IFNγ, 200 pM IL-21) [8] [pM]	IC50 in PC differentiation assay (2 nM IL-21) (recombinant human IL-21 [9]) [nM]	IC50 in PC differentiation assay (2 nM IL-21) [10] [nM]	binding result (IL-2)	binding result (IL-4)	binding result (IL-7)	Kd (recombinant human IL-21 [11]) [nM]	binding result (IL-15)	Kd (recombinant human IL-21 [12]) [nM]	Kd [13] [nM]
murine monoclonal antibody 9F11 (antibody, V domains shown, also called 9F11.1) VH: EVELVESGGGLVQPGGSMKLSCAASGFTFSDAWMDWVRQSPEKGLEWVAEIRSEADNHPTYYAESVKGRFTISRDDSKSSVYLQMNSLRAEDSGIYYCTEYDYEGFVHWGQGTLVTVSA VL: DIVLTQSPASLAVSLGQRATISCRASKSVSTYGYSYMHWYQQKPGQPPKLLIYLASNLESGVPARFSGSGSGTDFTLNIHPVEEEDAATYYCQHSRELPLTFGAGTKLELK	10	97	79	100	21.7	83.2	462	867	47.3	74	no binding	no binding	no binding	0.00999			
K44VHa-N56Q (MEDI7169) (antibody, V domains shown) VH: QVQLVQSGAEVKKPGASVKVSCKASGYTFTDYWMHWVRQAPGQGLEWMGTIDPSDQYTIYSQNFKGRVTMTRDTSTSTVYMELSSLRSEDTAVYYCARYGFAMDYWGQGTLVTVSS VL: DIQLTQSPSSLSASVGDRVTITCRASQDISNFLNWYQQKPGKAVKLLIYYTSRLHSGVPSRFSGSGSGTDYTLTISSLQPEDFATYYCQQGHTLPRTFGGGTKVEIK				100	17.2	19.3	92.7	80.8	0.777	1.06	no binding	no binding	no binding		no binding	0.000515	0.000352
